The text below walks through data of patent publication US20180179267A1 (published 2018).

Substitutions are numbered along the chain they refer to. Some results are limits rather than exact numbers.

As usually defined, the Kd is the concentration at which binding is half-saturated. A high value points to lower affinity.

T1: Hla
T1 chain: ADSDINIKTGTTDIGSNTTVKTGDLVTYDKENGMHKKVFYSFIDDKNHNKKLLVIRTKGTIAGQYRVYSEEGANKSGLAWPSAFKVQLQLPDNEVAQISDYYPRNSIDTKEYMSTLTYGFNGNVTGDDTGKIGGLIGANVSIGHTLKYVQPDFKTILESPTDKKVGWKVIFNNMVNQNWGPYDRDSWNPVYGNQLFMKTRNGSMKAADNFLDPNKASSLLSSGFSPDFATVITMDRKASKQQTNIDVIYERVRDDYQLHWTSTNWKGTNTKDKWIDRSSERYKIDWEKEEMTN

T2: HlgB
T2 chain: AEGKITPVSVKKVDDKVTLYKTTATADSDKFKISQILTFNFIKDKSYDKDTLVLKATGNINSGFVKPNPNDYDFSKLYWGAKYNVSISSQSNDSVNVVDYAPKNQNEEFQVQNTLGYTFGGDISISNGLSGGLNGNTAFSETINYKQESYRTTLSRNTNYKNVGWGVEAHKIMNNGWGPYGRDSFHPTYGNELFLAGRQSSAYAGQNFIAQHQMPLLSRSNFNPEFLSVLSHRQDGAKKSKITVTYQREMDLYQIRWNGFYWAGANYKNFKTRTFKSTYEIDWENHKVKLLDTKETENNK

T3: LukF
T3 chain: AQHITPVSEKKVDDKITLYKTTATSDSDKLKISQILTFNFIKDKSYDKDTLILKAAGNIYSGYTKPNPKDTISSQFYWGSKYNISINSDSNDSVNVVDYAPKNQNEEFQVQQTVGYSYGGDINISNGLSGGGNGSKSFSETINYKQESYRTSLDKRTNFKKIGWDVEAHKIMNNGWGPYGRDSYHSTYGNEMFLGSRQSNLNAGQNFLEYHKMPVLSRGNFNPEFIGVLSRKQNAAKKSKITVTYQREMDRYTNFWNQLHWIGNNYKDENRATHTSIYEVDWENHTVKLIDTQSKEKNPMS

T4: LukD
T4 chain: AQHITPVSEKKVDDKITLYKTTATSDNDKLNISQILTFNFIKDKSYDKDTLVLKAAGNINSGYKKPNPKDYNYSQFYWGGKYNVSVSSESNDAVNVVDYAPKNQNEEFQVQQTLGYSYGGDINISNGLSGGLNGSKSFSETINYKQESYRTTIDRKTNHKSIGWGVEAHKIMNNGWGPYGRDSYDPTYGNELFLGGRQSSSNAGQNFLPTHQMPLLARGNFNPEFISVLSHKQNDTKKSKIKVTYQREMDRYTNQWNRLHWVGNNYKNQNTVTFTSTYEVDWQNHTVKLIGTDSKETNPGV

B1: AB-28-6 (antibody, V domains shown)
VH: QVQLQESGPGLVRPSETLSLTCAVSGYSISSGMGWGWIRQPPGKGLEWIGSIDQRGSTYYNPSLKSRVTISVDTSKNQFSLKLSSVTAADTAVYYCARDAGHAVDMDVWGKGTTVTVSS
VL: DIQMTQSPSSVSASVGDRVTITCRASQGISRWLAWYQQKPGKAPKLLIYAASSLQSGVPSRFSGSGSGTDFTLTISSLQPEDFATYYCQQGYVFPLTFGGGTKVEIK
B2: AB-28-12 (antibody, V domains shown)
VH: B1 VH with R13K, G36D, L46R, K65E, S66G, A103G
VL: B1 VL
B3: AB-28-10 (antibody, V domains shown)
VH: B1 VH with R13K
VL: B1 VL
B4: AB-28-3 (antibody, V domains shown)
VH: B1 VH with R13K, I52V, A103G, V104A
VL: B1 VL
B5: AB-28 (antibody, V domains shown)
VH: B1 VH with R13K, A103G
VL: B1 VL
B6: AB-28-4 (antibody, V domains shown)
VH: B1 VH with R13K, S28P, S51R, V68A, A103G
VL: B1 VL
B7: AB-28-7 (antibody, V domains shown)
VH: B1 VH with R13K, G36D, L46R, K65E, S66G, V68A, A103G
VL: B1 VL
B8: AB-28-9 (antibody, V domains shown)
VH: B1 VH with Q1E
VL: B1 VL
B9: AB-28-8 (antibody, V domains shown)
VH: B1 VH with R13K, G36D, S63P, K65E, A103G
VL: B1 VL
B10: AB-28-13 (antibody, V domains shown)
VH: B1 VH with R13K, G36D, K65E, S66G, V68A, A103G
VL: B1 VL
B11: AB-28-11 (antibody, V domains shown)
VH: B1 VH with R13K, G36D, K65E, S66G, A103G
VL: B1 VL
B12: AB-28-5 (antibody, V domains shown)
VH: B1 VH with R13K, S51R, I52V, A103G
VL: B1 VL

The target of one test is T1, Hla.
Assay: not given
Molecule B1 registered a Kd of less than 0.002 nM.
On to B2, for which the Kd was less than 0.002 nM.
Regarding B3, the dissociation constant Kd was less than 0.002 nM.
With B4, the Kd amounted to 0.037 nM.
Same read-out and setting: then B5, with less than 0.002 nM; and B6, with 0.023 nM; and B7, with less than 0.002 nM.
B8 yielded a Kd of less than 0.002 nM.
The molecule B9 displayed an equilibrium dissociation constant (Kd) of less than 0.002 nM.
Consider B10, for which the Kd is less than 0.002 nM.
Still for that read-out and setting: then B11, with less than 0.002 nM; and B12, with 0.03 nM.

The next test deals with T2, HlgB. Briefly: MSD solution equilibrium; Fab.
In the case of B1, the dissociation constant Kd stood at 0.0025 nM.
In turn, B2 showed a Kd of less than 0.002 nM.
In the case of B3, the Kd is 0.006 nM.
Molecule B4 showed a Kd of 0.018 nM.
B5 displayed a Kd of 0.005 nM.
B6 registered a Kd of 0.14 nM.
In the case of B7, the Kd was less than 0.002 nM.
Molecule B8 gave a Kd of 0.005 nM.
For B9, the Kd was determined as 0.002 nM.
The same measure, in the same setting: the figure for B10 is 0.003 nM.
On to B11, for which the Kd amounted to 0.003 nM.
Molecule B12 came in with a dissociation constant Kd of 0.16 nM.

The next test concerns the target T3, LukF. Briefly: MSD solution equilibrium; Fab.
B1 gave a Kd of 0.016 nM.
Same read-out and setting: then B2, with 0.063 nM.
Turning to B3, binding was put at a Kd of 0.017 nM.
Molecule B4 had a dissociation constant Kd of less than 0.003 nM.
Still for that read-out and setting: then B5, with 0.13 nM.
B7 gave a Kd of 0.052 nM.
In turn, B8 yielded a dissociation constant (Kd) of 0.13 nM.
With B9, the dissociation constant Kd was 0.046 nM.
As for B10, binding was put at a Kd of 0.089 nM.
Same read-out and setting: then B11, with 0.071 nM.

Another test deals with T4, LukD. Briefly: MSD solution equilibrium; Fab.
Consider B1, for which the Kd was determined as 0.4 nM.
For B2, the dissociation constant (Kd) is 0.46 nM.
For B3, the dissociation constant Kd stood at 0.45 nM.
Molecule B4 came in with a dissociation constant Kd of 1.7 nM.
For the molecule B5, binding was put at a Kd of 2.2 nM.
The same measure, in the same setting: the figure for B6 is 0.086 nM; for B7 it is 0.29 nM; for B8 it is 2.2 nM.
The molecule B9 came in with a Kd of 0.78 nM.
With B10, the Kd was 0.79 nM.
On the same count and under the same terms, the figure for B11 is 1.2 nM.
B12: the equilibrium dissociation constant (Kd) was 0.16 nM.
